Results from patent publication US8227212B2, “Cell that expresses a sulfatase and a formylglycine generating enzyme” (Shire Human Genetic Therapies, Inc., priority 2003, dated 2012).
Read-outs that look alike come from different tables or passages of the source. Values belong to the substance of their own block, whether it stands above or below them.

Columns and labels:
[1] = biological target: T1, FGE (Bos taurus, UniProt Q0P5L5); assay: Affinity matrices: Affigel 10 derivatized with 16mer peptides, binding of FGE; set-up: species or system bovine
T1 construct: the soluble fraction (reticuloplasm) of bovine testis microsomes served as the starting material; from tissue; host or cells: bovine testis rough microsomes, reticuloplasm
T1 sequence (Q0P5L5 34-374): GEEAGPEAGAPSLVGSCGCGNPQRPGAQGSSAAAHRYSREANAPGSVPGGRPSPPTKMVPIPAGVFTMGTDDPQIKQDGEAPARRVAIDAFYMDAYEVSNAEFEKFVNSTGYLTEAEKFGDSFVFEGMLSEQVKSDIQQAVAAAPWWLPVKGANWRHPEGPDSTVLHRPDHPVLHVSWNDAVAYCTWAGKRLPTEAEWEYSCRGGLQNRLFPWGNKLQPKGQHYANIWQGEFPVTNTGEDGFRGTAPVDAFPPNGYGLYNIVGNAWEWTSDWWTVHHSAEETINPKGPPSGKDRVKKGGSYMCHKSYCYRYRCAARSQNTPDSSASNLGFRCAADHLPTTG
Protocol: Bovine testes were obtained from the local slaughter house and stored for up to 20 h on ice. The parenchyme was freed from connective tissue and homogenized in a waring blendor and by three rounds of motor pottering. Preparation of rough microsomes (RM) by cell fractionation of the obtained homogenate was performed as described (Meyer et al., J. Biol. Chem., 2000, 275:14550-14557) with the following modifications. Three differential centrifugation steps, 20 minutes each at 4° C., were performed at 500 g (JA10 rotor), 3000 g (JA10) and 10000 g (JA20). From the last supernatant the RM membranes were sedimented (125000 g, Ti45 rotor, 45 min, 4° C.), homogenized by motor pottering and layered on a sucrose cushion (50 mM Hepes, pH 7.6, 50 mM KAc, 6 mM MgAc2, 1 mM EDTA, 1.3 M sucrose, 5 mM β-mercaptoethanol). RMs were recovered from the pellet after spinning for 210 minutes at 45000 rpm in a Ti45 rotor at 4° C. Usually 100000-150000 equivalents RM, as defined by Walter and Blobel (Methods Enzymol.,1983, 96:84-93), were obtained from 1 kg of testis tissue. The reticuloplasm, i.e. the luminal content of the RM, was obtained by differential extraction at low concentrations of deoxy Big Chap, as described (Fey et al., J. Biol. Chem., 2001, 276:47021-47028). For FGE purification, 95 ml of reticuloplasm were dialyzed for 20 h at 4° C. against 20 mM Tris/HCl, pH 8.0, 2.5 mM DTT, and cleared by centrifugation at 125000 g for 1 h. 32 ml-aliquots of the cleared reticuloplasm were loaded on a MonoQ HR10/10 column (Amersham Biosciences, Piscataway, N.J.) at room temperature, washed and eluted at 2 ml/min with a linear gradient of 0 to 0.75 M NaCl in 80 ml of the Tris buffer. […] An aliqout of the eluate was substituted with 1 mg/ml bovine serum albumin, dialyzed against buffer A and analyzed for activity. […] The polypeptide composition of the starting material and preparations obtained after the chromatographic steps were monitored by SDSPAGE (15% acrylamide, 0.16% bisacrylamide) and staining with SYPRO Ruby (Bio-Rad Laboratories). […]

[2] = biological target: T1, FGE; assay: In vitro assay for FGE with peptide P23 as substrate (MALDI-TOF); format: biochemical; details: incubation with extracts from microsomes of bovine pancreas or bovine testis
Protocol: For monitoring the activity of FGE, the N-acetylated and C-amidated 23mer peptide P23 ([…]) (SEQ ID NO:33) was used as substrate. The conversion of the Cysteine residue in position 11 to FGly was monitored by MALDI-TOF mass spectrometry. A 6 μM stock solution of P23 in 30% acetonitrile and 0.1% trifluoroacetic acid (TFA) was prepared. Under standard conditions 6 pmol of P23 were incubated at 37° C. with up to 10 μl enzyme in a final volume of 30 μl 50 mM Tris/HCl, pH 9.0, containing 67 mM NaCl, 15 μM CaCl2, 2 mM DTT, and 0.33 mg/ml bovine serum albumin. To stop the enzyme reaction 1.5 μl 10% TFA were added. […] Activity (pmol product/h) was calculated on the basis of the peak height of the product divided by the sum of the peak heights of P23 and the product.
We had developed an assay for determining FGE activity in microsome extracts using in vitro synthesized [^35S] […] The quantitation of the product included tryptic digestion, separation of the peptides by RP-HPLC and identification and quantitation of the [^35S]-labeled FGly containing tryptic peptide by a combination of chemical derivatization to hydrazones, RP-HPLC separation and liquid scintillation counting (Fey et al., J. Biol. Chem., 2001, 276:47021-47028). […] The cysteine and the FGly containing forms of P23 could be identified and quantified by matrix-assisted laser desorption/ionisation time of flight (MALDI-TOF) mass spectrometry. […]

[3] = biological target: T1, FGE; assay: In vitro FGE activity assay with [35S] ASA fragments (ribosome-associated nascent chain complexes) as substrate; format: biochemical, bovine
Protocol: We had developed an assay for determining FGE activity in microsome extracts using in vitro synthesized [^35S] ASA fragments as substrate. The fragments were added to the assay mixture as ribosome-associated nascent chain complexes. The quantitation of the product included tryptic digestion, separation of the peptides by RP-HPLC and identification and quantitation of the [^35S]-labeled FGly containing tryptic peptide by a combination of chemical derivatization to hydrazones, RP-HPLC separation and liquid scintillation counting (Fey et al., J. Biol. Chem., 2001, 276:47021-47028). For monitoring the enzyme activity during purification, this cumbersome procedure needed to be modified. […] We synthesized the 23mer peptide P23 (SEQ ID NO:33), which corresponds to ASA residues 60-80 with an additional N-acetylated methionine and a C-amidated serine residue to protect the N- and C-terminus, respectively. The cysteine and the FGly containing forms of P23 could be identified and quantified by matrix-assisted laser desorption/ionisation time of flight (MALDI-TOF) mass spectrometry. The presence of the FGly residue in position 11 of P23 was verified by MALDI-TOF post source decay mass spectrometry (see Peng et al., J. Mass Spec., 2003, 38:80-86). […]

[4] = system: ARSA, ARSC and ARSE; assay: Co-expression of FGE (SUMF1) and sulfatase cDNAs in cell lines, sulfatase activities; format: cell-based, human; details: co-transfection with ARSA, ARSC and ARSE cDNAs in various cell lines
Description: To test the effect of FGE (SUMF1) on additional sulfatase activities in normal cells we overexpressed ARSA (SEQ ID NO:14), ARSC (SEQ ID NO:18) and ARSE (SEQ ID NO:22) cDNAs in various cell lines with and without co-transfection of the FGE (SUMF1) cDNA and measured sulfatase activities.
To test for functional conservation of the FGE (SUMF1) gene during evolution we overexpressed ARSA, ARSC and ARSE cDNAs in various cell lines with and without co-transfection of the […] and measured sulfatase activities.

Substance: Ser69 peptide: variant of ASA65-80 with Cys69 replaced by serine, PVSLSTPSRAALLTGR (SEQ ID NO:35) (a variant of the ASA65-80 peptide, in which the Cys69 was replaced by a Serine)
- binding of FGE to peptide immobilized to Affigel 10 [1]: efficiently bound FGE

Substance: Ac-MTDFYVPVSLCTPSRAALLTGRS-NH2 [P23]
- conversion of the peptide into a FGly containing derivative [2]: up to 95%

Substance: FGE2 (SUMF2): FGE gene paralog located on human chromosome 7 (SEQ ID NOs: 45, 46)
- activity of FGE homologs on overexpressed human sulfatases [4]: much weaker

The remaining lines, values ahead:

- inhibition of FGE activity ([3]; added at 10 mM concentration): did not inhibit FGE activity
- binding of FGE to peptide immobilized to Affigel 10 [1]: did not retain FGE activity
Substance: scrambled peptide: variant of ASA65-80 with Cys69, Pro71 and Arg73 scrambled, PVSLPTRSCAALLTGR (SEQ ID NO:34) (a variant of the ASA65-80 peptide, in which residues Cys69, Pro71 and Arg73, critical for FGly formation, were scrambled)

- inhibition of FGE activity [3]: inhibited the FGE activity
- binding of FGE to peptide immobilized to Affigel 10 [1]: bound FGE efficiently
Substance: ASA65-80: synthetic 16mer peptide corresponding to ASA residues 65-80 containing the sequence motif required for FGly formation (PVSLCTPSRAALLTGR)
